Assay results: ChEMBL document CHEMBL2073860, “A third human carnitine/organic cation transporter (OCTN3) as a candidate for the 5q31 Crohn's disease locus (IBD5)” (Biochem Biophys Res Commun, 2003)

Substrate: C[N+](C)(C)CC(O)CC(=O)[O-]
Test: TP_TRANSPORTER: uptake in Octn3-HepG2 cells
Type: functional, cell-based

B1: Solute carrier family 22 member 21 (Mus musculus), Q9WTN6 (protein)
chain: MLDYDEVTAFLGEWGTFQRLIFFLLSASIIPNGFTGLSAVFLTAIPEHRCRIPDTVNLSSAWRNHSIPMETKDGPEVPQKCRRYRLATIANFSELGLEPGRDVDLEQLEQENCLDGWEYDKDIFLSTIVTEWDLVCKDDWKAPLTTSFFYVGVLLGSFISGQLSDRFGRKNILFLTMAMHTGFSFIQVFSVNFEMFTLLYTLVGMGHISNYVAAFVLGTEMLSKSVRIIFATLGVCIFFAFGFMVLPLFAYFIREWRRLLLAITLPGVLCGALWWFIPESPRWLISQGRIKEAEVIIRKAAKINGIVAPSTIFDPSETNKLQDDSSKKPQSHHIYDLVRTPNIRILTIMSIILWLTISVGYFGLSLDTPNLNGNIYVNCFLLAAVEVPAYVLAWLLLQHVSRRYSMAGSLFLGGSVLLLVQLVPSDLHYLSTTLVMVGKFGITSAYSMVYVYTAELYPTVVRNMGVGVSSTASRLGSILSPYFVYLGAYDRRLPYILMGSLTILTAIITLFFPESSGVSLPETIDEMQKVKKLKQRQSLSKKGSPKESKGNVSRTSRTSEPKGF
- Km: 20 µM
